Results from publication doi:10.1101/2024.06.05.597643, “Identification and characterization of a human MORC2 DNA binding region that is required for gene silencing” (bioRxiv, 2024).

Tests used:
[1] = target: T1, MORC2 wild type, dephosphorylated (Homo sapiens) (UniProt Q9Y6X9); experiment: fluorescence anisotropy; details: FA: 50 mM NaCl, 3 mM MgCl2, 20 mM Na-HEPES pH 7.4, 1 mM TCEP, 10% glycerol, 0.025 mM ZnCl2, 50 ug/ml BSA, 1 nM nucleic acid, room temperature
T1 sequence: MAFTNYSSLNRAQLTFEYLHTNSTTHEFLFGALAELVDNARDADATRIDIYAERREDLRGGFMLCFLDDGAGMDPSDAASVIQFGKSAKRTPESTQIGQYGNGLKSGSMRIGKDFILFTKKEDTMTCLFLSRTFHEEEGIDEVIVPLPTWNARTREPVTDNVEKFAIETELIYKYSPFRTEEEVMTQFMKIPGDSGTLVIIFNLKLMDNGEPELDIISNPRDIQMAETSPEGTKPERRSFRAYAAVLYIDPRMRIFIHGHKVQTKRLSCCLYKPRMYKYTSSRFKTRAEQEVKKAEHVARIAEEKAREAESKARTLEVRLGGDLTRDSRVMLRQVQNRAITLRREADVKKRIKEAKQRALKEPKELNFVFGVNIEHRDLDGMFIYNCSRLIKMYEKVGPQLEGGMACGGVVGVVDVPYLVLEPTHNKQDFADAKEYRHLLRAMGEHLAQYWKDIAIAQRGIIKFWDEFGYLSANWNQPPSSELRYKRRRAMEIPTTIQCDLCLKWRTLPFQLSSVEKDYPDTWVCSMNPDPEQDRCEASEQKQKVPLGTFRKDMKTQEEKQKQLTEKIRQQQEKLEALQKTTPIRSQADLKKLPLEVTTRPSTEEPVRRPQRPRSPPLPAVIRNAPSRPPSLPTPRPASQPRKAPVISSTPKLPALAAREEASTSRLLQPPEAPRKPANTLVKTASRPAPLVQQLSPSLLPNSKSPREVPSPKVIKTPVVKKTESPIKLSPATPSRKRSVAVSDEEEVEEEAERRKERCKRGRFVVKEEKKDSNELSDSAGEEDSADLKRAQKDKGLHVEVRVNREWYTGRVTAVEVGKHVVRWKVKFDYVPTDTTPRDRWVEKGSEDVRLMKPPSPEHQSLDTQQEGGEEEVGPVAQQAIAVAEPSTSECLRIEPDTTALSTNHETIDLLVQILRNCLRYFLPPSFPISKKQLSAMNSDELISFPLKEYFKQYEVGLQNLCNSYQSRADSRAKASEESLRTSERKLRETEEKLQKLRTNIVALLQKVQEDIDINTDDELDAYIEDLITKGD

[2] = target: the molecule itself; experiment: SEC-MALS; full-length MORC2 2 mg/mL, 150 mM NaCl, 3 mM MgCl2, 20 mM Na-HEPES pH 7.4, 0.5 mM TCEP, 1.5% glycerol, 0.025 mM ZnCl2, without AMP-PNP; Wyatt 030 column
[3] = target: the molecule itself; experiment: SEC-MALS; coiled coil 3 1.5 mg/mL, 150 mM NaCl, 3 mM MgCl2, 20 mM Na-HEPES pH 7.4, 0.5 mM TCEP, 1.5% glycerol, 0.025 mM ZnCl2; Wyatt 010 column

ATATCGATGTATATATCTGACACGTGCCTGGAGACTAGGGAGTAATCCCCTTGGCGGTTAAAACGCGGGGGACAGCGCGTACGTGCGTTTAAGCGGTGCTAGAGCTGTCTACGACCAATTGAGCGGCCTCGGCACCGGGATTCTGATAT (double strand) [Nucleosome on 2-601-2 DNA]
Kd [1]: 16 nM

B1: full-length human MORC2 (natural protein, UniProt Q9Y6X9 1-1032, looked up)
chain: MAFTNYSSLNRAQLTFEYLHTNSTTHEFLFGALAELVDNARDADATRIDIYAERREDLRGGFMLCFLDDGAGMDPSDAASVIQFGKSAKRTPESTQIGQYGNGLKSGSMRIGKDFILFTKKEDTMTCLFLSRTFHEEEGIDEVIVPLPTWNARTREPVTDNVEKFAIETELIYKYSPFRTEEEVMTQFMKIPGDSGTLVIIFNLKLMDNGEPELDIISNPRDIQMAETSPEGTKPERRSFRAYAAVLYIDPRMRIFIHGHKVQTKRLSCCLYKPRMYKYTSSRFKTRAEQEVKKAEHVARIAEEKAREAESKARTLEVRLGGDLTRDSRVMLRQVQNRAITLRREADVKKRIKEAKQRALKEPKELNFVFGVNIEHRDLDGMFIYNCSRLIKMYEKVGPQLEGGMACGGVVGVVDVPYLVLEPTHNKQDFADAKEYRHLLRAMGEHLAQYWKDIAIAQRGIIKFWDEFGYLSANWNQPPSSELRYKRRRAMEIPTTIQCDLCLKWRTLPFQLSSVEKDYPDTWVCSMNPDPEQDRCEASEQKQKVPLGTFRKDMKTQEEKQKQLTEKIRQQQEKLEALQKTTPIRSQADLKKLPLEVTTRPSTEEPVRRPQRPRSPPLPAVIRNAPSRPPSLPTPRPASQPRKAPVISSTPKLPALAAREEASTSRLLQPPEAPRKPANTLVKTASRPAPLVQQLSPSLLPNSKSPREVPSPKVIKTPVVKKTESPIKLSPATPSRKRSVAVSDEEEVEEEAERRKERCKRGRFVVKEEKKDSNELSDSAGEEDSADLKRAQKDKGLHVEVRVNREWYTGRVTAVEVGKHVVRWKVKFDYVPTDTTPRDRWVEKGSEDVRLMKPPSPEHQSLDTQQEGGEEEVGPVAQQAIAVAEPSTSECLRIEPDTTALSTNHETIDLLVQILRNCLRYFLPPSFPISKKQLSAMNSDELISFPLKEYFKQYEVGLQNLCNSYQSRADSRAKASEESLRTSERKLRETEEKLQKLRTNIVALLQKVQEDIDINTDDELDAYIEDLITKGD
notes: Cloned into both 438-B (N-terminal His6-TEV) and 438-C (N-terminal His6-MBP-TEV); the tag was removed with TEV protease; also called wildtype MORC2; dephosphorylated MORC2; not shown: His6, N-terminal, cleaved
stoichiometry N [2]: 2

B2: MORC2 coiled coil 3 (domain or fragment, human, UniProt Q9Y6X9 900-1032, looked up)
chain: ALSTNHETIDLLVQILRNCLRYFLPPSFPISKKQLSAMNSDELISFPLKEYFKQYEVGLQNLCNSYQSRADSRAKASEESLRTSERKLRETEEKLQKLRTNIVALLQKVQEDIDINTDDELDAYIEDLITKGD
notes: also called CC3; source: E. coli BL21 (DE3) RIL, purified (HisTrap, TEV cleavage, S75 SEC); not shown: His6, N-terminal, cleaved
stoichiometry N [3]: 2
